Measurements as given in paper PMC7591462, “The Diversity and Similarity of Transmembrane Trimerization of TNF Receptors” (Frontiers in Cell and Developmental Biology, 2020).

Molecular target: the molecule itself
Experiment: SDS-PAGE of bicelle-reconstituted protein; protein reconstituted in DMPC-DH6PC bicelles (q = 0.5; DMPC:DH6PC approximately 1:2), 20 mM sodium phosphate pH 6.8; mixed with LDS loading buffer without heating or reducing agents; NuPAGE 12% gel, 200 V on ice

B1: human TNFR1 TM fragment, residue 209-238 (TNFR1 TMH), C223A M233A (domain or fragment, UniProt P19438 209-238, looked up)
chain: GTTVLLPLVIFFGLALLSLLFIGLAYRYQR
notes: TNFR1 (tumor necrosis factor receptor 1), human, isoform 1, transmembrane fragment residues 209-238 with C223A and M233A; Released from His9-TrpLE by cyanogen bromide at a methionine added between TrpLE and the fragment; Isotope-labelled (15N, 13C, 2H) for NMR; also called TNFR TMH; TMH of TNFR1; source: reconstituted in DMPC-DH6PC bicelles; not shown: His9, N-terminal, cleaved; TrpLE, …
stoichiometry N: 3
